Here are results for three molecules from patent US20190092850A1 (NUMAB INNOVATION, published 2019).

For experiment [1], the target named is T1, recombinant human TNFα (human, UniProt P01375 77-233).
T1 construct: also called TNFαtrimer; tumor necrosis factor alpha
Put plainly: SPR (MASS-1), human TNFα immobilised, scFv injected; screening with 90 nM of scFv.
Protocol: (§1) In a second step, for the best performing scFvs, Single Injection Cycle Kinetics (SiCK) were measured from a single injection cycle by simultaneously injecting six analyte samples at different concentrations into each of the eight parallel channels in the MASS-1 system. […] The apparent dissociation (kd) and association (kₐ) rate constants and the apparent dissociation equilibrium constant (KD) were calculated with the MASS-1 analysis software (Analyzer, Sierra Sensors) using one-to-one Langmuir binding model and quality of the fits was monitored based on Chi², which is a measure for the quality of the curve fitting. The smaller the value for the Chi² the more accurate is the fitting to the one-to-one Langmuir binding model. For affinity screenings, results were deemed valid if the Chi² was below 10 for the concentration analyzed. In cases where several scFv concentrations were analyzed, results were deemed valid if the average Chi² over all the concentrations tested was below 10.

The target of experiment [2] is Rhesus monkey TNFα (Rhesus monkey (Macaca mulatta), UniProt P48094 77-233). Put plainly: cell-based or functional assay.
Experiment [3] has as its target recombinant Cynomolgus monkey TNFα (Cynomolgus monkey (Macaca fascicularis), UniProt P79337 77-233). The experiment in a line: cell-based or functional assay.
Experiment [4] deals with T1, recombinant human TNFα. The experiment in a line: cell-based or functional assay.
Experiment [5] concerns the target T1, recombinant human TNFα. Put plainly: SPR (MASS-1), human TNFα immobilised, two-fold serial dilutions of scFv injected.
Protocol: Affinity was determined using 2-fold serial dilutions of the respective scFvs.
as §1

Substitutions are numbered along the chain they refer to.

T1 sequence (P01375 77-233 limits assumed): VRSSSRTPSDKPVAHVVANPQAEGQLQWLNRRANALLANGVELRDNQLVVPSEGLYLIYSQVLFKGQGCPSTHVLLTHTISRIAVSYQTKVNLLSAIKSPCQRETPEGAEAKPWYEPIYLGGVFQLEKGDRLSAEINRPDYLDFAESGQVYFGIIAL
Sequence of recombinant Cynomolgus monkey TNFα (P79337 77-233 limits assumed): as the sequence (P01375 77-233 limits assumed) above, with L37V, R44T, T72N, R138L counted along it
Sequence of Rhesus monkey TNFα (P48094 77-233 limits assumed): as the sequence (P01375 77-233 limits assumed) above, with R44T, T72N, R138L counted along it

B1: humanized scFv 16-19-B11-sc01 (CDR graft) (scFv)
scFv: MDIQMTQSPSSLSASVGDRVTITCQASESISSWLAWYQQKPGKAPKLLIYKASTLASGVPSRFSGSGSGTDFTLTISSLQPEDFATYYCQGYYLDSSVDDNVFGGGTKLTVLGGGGGSGGGGSGGGGSGGGGSEVQLVESGGGLVQPGGSLRLSCAASGIDFSTYGISWVRQAPGKGLEWIGYIYPDYGITDYASWVNGRFTISRDNSKNTVYLQMNSLRAEDTAVYYCARSGSYYSRGWGAHYFNLWGQGTLVTVSS
Consider B1, for which, in experiment [1], the Kd amounted to 0.7 nM, the off-rate (koff) came out at 0.00048 s⁻¹ and the kon is 680000 M⁻¹ s⁻¹. The “Species specificity in L929 assay IC50 (ng/ml), rhesus” value in experiment [2] was 59.7 ng/mL. The “Species specificity in L929 assay IC50 (ng/ml), cyno” value in experiment [3] is 92.1 ng/mL. Besides, in experiment [4], the “Neutralization of TNF in L929 assay, rel. IC50 (IC50, Infliximab (ng/ml)/IC50, scFv (ng/ml))” value was found to be 0.6 ratio; the “Neutralization of TNF in L929 assay, rel. IC90 (IC90, Infliximab (ng/ml)/IC90, scFv (ng/ml))” value is 0.2 ratio; the “Species specificity in L929 assay IC50 (ng/ml), human” value (“Species specificity … human” for short) is 12.1 ng/mL.

B2: humanized scFv 16-19-B11-sc02 (structural graft) (scFv)
scFv: B1 scFv with T23N, D71E, S78G, E82A, A156K, G182A, R205L
Take B2: in experiment [1], the Kd was found to be 0.22 nM, the dissociation rate constant (koff) turned out to be 0.00016 s⁻¹ and the kon stood at 730000 M⁻¹ s⁻¹. Further, in experiment [4], the “Neutralization of TNF in L929 assay, rel. IC50 (IC50, Infliximab (ng/ml)/IC50, scFv (ng/ml))” value amounted to 94 ratio; the “Neutralization of TNF in L929 assay, rel. IC90 (IC90, Infliximab (ng/ml)/IC90, scFv (ng/ml))” value was determined as 4.5 ratio; the “Species specificity … human” value was found to be 0.8 ng/mL.

B3: humanized scFv 16-19-B11-sc06 (structural graft) (scFv)
scFv: B1 scFv with T23N, A44R, F72Y, G182A, R205L, S208A, K209Q
As for B3, in experiment [5], the equilibrium dissociation constant (Kd) was 0.059 nM, the koff was found to be 5.8e-05 s⁻¹ and the kon came out at 970000 M⁻¹ s⁻¹. Further, the “Species specificity in L929 assay IC50 (ng/ml), rhesus” value in experiment [2] came to 1 ng/mL. Besides, in experiment [3], the “Species specificity in L929 assay IC50 (ng/ml), cyno” value was 1.8 ng/mL. Moreover, in experiment [4], the “Neutralization of TNF in L929 assay, rel. IC50 (IC50, Infliximab (ng/ml)/IC50, scFv (ng/ml))” value is 16.2 ratio; the “Neutralization of TNF in L929 assay, rel. IC90 (IC90, Infliximab (ng/ml)/IC90, scFv (ng/ml))” value is 15 ratio; the “Species specificity … human” value turned out to be 0.4 ng/mL.
